As a reminder, the EC50 is the concentration giving half of the maximal effect. As a reminder, the EC50 (read off the curve) is the concentration needed to bring the measured effect to its halfway point.

One assay deals with T1, mouse 4-1BB-His (mouse, UniProt P20334 24-187).
T1 construct: not shown: His tag
T1 sequence (looked up): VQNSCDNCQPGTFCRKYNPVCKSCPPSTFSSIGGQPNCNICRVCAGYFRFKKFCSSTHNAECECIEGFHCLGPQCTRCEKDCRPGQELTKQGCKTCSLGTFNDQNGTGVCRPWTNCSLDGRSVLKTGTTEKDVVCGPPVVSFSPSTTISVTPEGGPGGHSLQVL
Nature of the assay: MSD: coat m41BB-His (Acro); detection anti-mouse Sulfo (MSD). As to the method: Mouse 4-1BB-His was coated on plates and increasing amounts of the mSIRPα-Fc-4-1BBL, or mSIRPα-Fc-CD40L chimeric proteins were added to the plates for capture by the plate-bound mouse 4-1BB-His. The mSIRPα-Fc-CD40L chimeric protein was used as a negative control for binding to mouse 4-1BB. Binding of the chimeric proteins to 4-1BB-His was detected using an anti-mouse-SULFO-TAG antibody. Binding was assayed using an electrochemiluminescence (ECL) readout.

The next assay addresses T2, mouse CD47-Fc (mouse, UniProt Q61735 19-140, limits assumed).
T2 construct: not shown: Fc; not described
T2 sequence (looked up): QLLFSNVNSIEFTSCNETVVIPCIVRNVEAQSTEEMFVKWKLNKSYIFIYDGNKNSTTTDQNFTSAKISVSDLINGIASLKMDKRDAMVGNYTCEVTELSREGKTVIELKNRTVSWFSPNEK
Nature of the assay: MSD dual-binding sandwich: coat mCD47-Fc (Acro); detect m41BB-His (Acro); anti-His Biotin + Streptavidin Sulfo. How it is done: To understand whether the mouse SIRPα-Fc-4-1BBL chimeric protein can contemporaneously bind to mouse 4-1BB and CD47, mouse CD47-Fc was coated on plates and increasing amounts of the mSIRPα-Fc-4-1BBL, or PD-1-Fc-4-1BBL chimeric proteins were added to the plates for capture by the plate-bound mouse CD47-Fc. The PD-1-Fc-4-1BBL chimeric protein was used as a negative control. Then, mouse 4-1BB-His was added to the plate for capture by any chimeric protein, which was captured in turn by the mouse CD47-Fc protein. An anti-His-biotin and streptavidin-SULFO-TAG were used for detection. Binding was assayed using an electrochemiluminescence (ECL) readout.

The target in a further assay is T3, mouse CD47-His (mouse, UniProt Q61735 19-140, limits assumed).
T3 construct: not shown: His tag
T3 sequence (looked up): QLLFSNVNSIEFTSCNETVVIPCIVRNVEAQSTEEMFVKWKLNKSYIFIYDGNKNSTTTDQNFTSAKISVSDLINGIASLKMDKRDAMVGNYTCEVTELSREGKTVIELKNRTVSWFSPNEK
Nature of the assay: MSD: coat mCD47-His (Acro); detection anti-mouse Sulfo (MSD). As to the method: Mouse CD47-His was coated on plates and increasing amounts of the mSIRPα-Fc-4-1BBL or mSIRPα-Fc-CD40L chimeric proteins were added to the plates for capture by the plate-bound mouse CD47-His. The mSIRPα-Fc-CD40L chimeric protein was used as a positive control for binding to mouse CD47. Binding of the chimeric proteins to CD47-His was detected using an anti-mouse SULFO-TAG antibody. Binding was assayed using an electrochemiluminescence (ECL) readout.

The target of a further assay is T4, anti-H&L.
T4 construct: also called capture antibody of the Fc ELISA panel
Nature of the assay: ELISA: capture anti-H&L; detection anti-Fc-HRP.

For the next assay, the target named is T5, murine recombinant LTβR (mouse, UniProt P50284 31-223).
T5 construct: also called mouse LTβR; printed LOUR
T5 sequence (P50284 31-223): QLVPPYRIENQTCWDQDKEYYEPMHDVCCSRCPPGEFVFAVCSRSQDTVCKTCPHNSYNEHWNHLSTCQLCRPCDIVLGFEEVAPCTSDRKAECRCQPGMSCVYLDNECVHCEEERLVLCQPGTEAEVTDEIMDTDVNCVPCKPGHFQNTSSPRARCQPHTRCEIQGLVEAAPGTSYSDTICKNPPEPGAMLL
Nature of the assay: ELISA: capture mLTβR-His; detection anti-mLIGHT-Bio.

The target in a further assay is T6, CHOK1/mLTβR (mouse, UniProt P50284).
T6 construct: expressed on the surface of stably transfected CHO-K1 cells; also called cell surface mouse LTβR on CHO-K1/mLTβR cells
T6 sequence (P50284 31-415 limits assumed): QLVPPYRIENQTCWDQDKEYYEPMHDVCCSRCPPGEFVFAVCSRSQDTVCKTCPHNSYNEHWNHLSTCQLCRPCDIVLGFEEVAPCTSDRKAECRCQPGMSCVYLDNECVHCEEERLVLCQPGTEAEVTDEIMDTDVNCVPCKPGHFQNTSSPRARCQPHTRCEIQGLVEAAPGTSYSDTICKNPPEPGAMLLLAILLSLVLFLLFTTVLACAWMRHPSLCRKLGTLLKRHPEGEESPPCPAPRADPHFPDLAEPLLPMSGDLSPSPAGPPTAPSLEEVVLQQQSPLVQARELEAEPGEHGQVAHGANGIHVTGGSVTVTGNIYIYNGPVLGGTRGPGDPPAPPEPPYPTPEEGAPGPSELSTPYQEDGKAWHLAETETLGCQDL
Nature of the assay: flow cytometry on CHOK1/mLTβR cells. On the technique in general: Flow cytometry measures light scatter and fluorescence of single cells or particles in a stream.

For a further assay, the target named is T7, murine recombinant HVEM (mouse, UniProt Q80WM9 39-206).
T7 construct: also called mouse HVEM
T7 sequence (looked up): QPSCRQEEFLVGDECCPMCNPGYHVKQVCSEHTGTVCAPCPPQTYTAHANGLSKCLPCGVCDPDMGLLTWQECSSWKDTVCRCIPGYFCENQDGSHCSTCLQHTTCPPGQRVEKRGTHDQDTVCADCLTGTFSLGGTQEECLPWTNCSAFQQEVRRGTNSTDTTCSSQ
Nature of the assay: ELISA on recombinant murine targets. In general terms: ELISA stands for enzyme-linked immunosorbent assay.

Another assay deals with T8, murine recombinant PVR (mouse).
T8 construct: also called mouse PVR
Nature of the assay: ELISA: capture mCD115/PVR (so in the source); detection anti-Fc-HRP.

B1: mouse SIRPα-Fc-4-1BBL chimeric protein (Fc fusion)
chain: KELKVTQPEKSVSVAAGDSTVLNCTLTSLLPVGPIKWYRGVGQSRLLIYSFTGEHFPRVTNVSDATKRNNMDFSIRISNVTPEDAGTYYCVKFQKGPSEPDTEIQSGGGTEVYVLAKPSPPEVSGPADRGIPDQKVNFTCKSHGFSPRNITLKWFKDGQELHHLETTVNPSGKNVSYNISSTVRVVLNSMDVHSKVICEVAHITLDRSPLRGIANLSNFIRVSPTVKVTQQSPTSMNQVNLTCRAERFYPEDLQLIWLENGNVSRNDTPKNLTKNTDGTYNYTSLFLVNSSAHREDVVFTCQVKHDQQPAITRNHTVLGLAHSSDQGSMQTFPGNNATHNWNVPRDCGCKPCICTVPEVSSVFIFPPKPKDVLTITLTPKVTCVVVDISKDDPEVQFSWFVDDVEVHTAQTQPREEQFNSTFRSVSELPIMHQDWLNGKEFKCRVNSAAFPAPIEKTISKTKGRPKAPQVYTIPPPKEQMAKDKVSLTCMITDFFPEDITVEWQWNGQPAENYKNTQPIMDTDGSYFVYSKLNVQKSNWEAGNTFTCSVLHEGLHNHHTEKSLSHSPGIIEGRMDRTEPRPALTITTSPNLGTRENNADQVTPVSHIGCPNTTQQGSPVFAKLLAKNQASLCNTTLNWHSQDGAGSSYLSQGLRYEEDKKELVVDSPGLYYVFLELKLSPTFTNTGHKVQGWVSLVLQAKPQVDDFDNLALTVELFPCSMENKLVDRSWSQLLLLKAGHRLSVGLRAYLHGAQDAYRDWELSYPNTTSFGLFLVKPDNPWE
notes: also called mSIRPα-Fc-4-1BBL
Take B1: the concentration giving a half-maximal response (EC50) with mouse 4-1BB-His was determined as 0.674 nM; in the assay with mouse CD47-Fc, 22.4 nM; with mouse CD47-His, 0.609 nM.

B2: mouse TIGIT-Fc-LIGHT chimeric protein (Fc fusion)
chain: TIDTKRNISAEEGGSVILQCHFSSDTAEVTQVDWKQQDQLLAIYSVDLGWHVASVFSDRVVPGPSLGLTFQSLTMNDTGEYFCTYHTYPGGIYKGRIFLKVQESSDDRNGLAQFQTAPLGVPRDCGCKPCICTVPEVSSVFIFPPKPKDVLTITLTPKVTCVVVDISKDDPEVQFSWFVDDVEVHTAQTQPREEQFNSTFRSVSELPIMHQDWLNGKEFKCRVNSAAFPAPIEKTISKTKGRPKAPQVYTIPPPKEQMAKDKVSLTCMITDFFPEDITVEWQWNGQPAENYKNTQPIMDTDGSYFVYSKLNVQKSNWEAGNTFTCSVLHEGLHNHHTEKSLSHSPGKIEGRMDLHQRLGDIVAHLPDGGKGSWEKLIQDQRSHQANPAAHLTGANASLIGIGGPLLWETRLGLAFLRGLTYHDGALVTMEPGYYYVYSKVQLSGVGCPQGLANGLPITHGLYKRTSRYPKELELLVSRRSPCGRANSSRVWWDSSFLGGVVHLEAGEEVVVRVPGNRLVRPRDGTRSYFGAFMV
notes: also called mTIGIT-Fc-LIGHT; murine TIGIT-Fc-LIGHT chimeric protein
With B2, the “EC50 (read off the curve)” value with anti-H&L was approximately 4 nM; in the assay with murine recombinant PVR, approximately 5 nM. Further, the binding result with murine recombinant LTβR, in the assay with CHOK1/mLTβR and with murine recombinant HVEM was “binds” throughout.

The record behind these values is US20240016892A1 (SHATTUCK LABS, published 2024).
